# Target: Recombinant Human TNF-α/TNFSF1A (human, UniProt P01375 77-233)
# Test: cell-based or functional assay
# Recombinant Human TNF-α/TNFSF1A, sequence (P01375 77-233 limits assumed): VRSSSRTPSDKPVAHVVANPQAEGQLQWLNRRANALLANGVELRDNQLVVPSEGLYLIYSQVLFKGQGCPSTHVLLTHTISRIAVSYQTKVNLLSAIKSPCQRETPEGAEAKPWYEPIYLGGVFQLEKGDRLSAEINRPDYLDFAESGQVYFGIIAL
C-Terminal VD huTNFα Neutralization Assay IC50,N-Terminal VD huTNFα Neutralization Assay IC50,Binder
0.243 nM,–,"DVD3222 (bispecific antibody, IgG1) VH: EVQLVESGGGLVQPGGSLRLSCAASGFSFSKYWLGWVRQAPGKGLEWVSDIYPGYDYTHYNEKFKDRFTISADTSKNTAYLQMNSLRAEDTAVYYCARSDGSSTYWGQGTLVTVSSASTKGPSVFPLAPEVQLVESGGGLVQPGGSLRLSCAASGFTFSNYGVEWVRQAPGKGLEWVSGIWADGSTHYADTVKSRFTISRDNSKNTLYLQMNSLRAEDTAVYYCAREWQHGPVAYWGQGTLVTVSS VL: DIQMTQSPSSLSASVGDRVTITCTSSQNIVHSNGNTYLEWYQQKPGKAPKLLIYKVSNRFSGVPSRFSGSGSGTDFTLTISSLQPEDFATYYCFQVSHVPYTFGQGTKVEIKRTVAAPDIQMTQSPSSLSASVGDRVTITCKASQLVSSAVAWYQQKPGKAPKLLIYWASTLHTGVPSRFSGSGSGTDFTLTISSLQPEDFATYYCQQHYRTPFTFGQGTKLEIKR"
–,0.002 nM,"DVD3223 (bispecific antibody, IgG1) VH: EVQLVQSGAEVKKPGASVKVSCKASGYTFANYGIIWVRQAPGQGLEWMGWINTYTGKPTYAQKFQGRVTMTTDTSTSTAYMELSSLRSEDTAVYYCARKLFTTMDVTDNAMDYWGQGTTVTVSSGGGGSGGGGSEVQLVESGGGLVQPGGSLRLSCAASGFSFSKYWLGWVRQAPGKGLEWVSDIYPGYDYTHYNEKFKDRFTISADTSKNTAYLQMNSLRAEDTAVYYCARSDGSSTYWGQGTLVTVSS VL: DIQMTQSPSSLSASVGDRVTITCRASQDISQYLNWYQQKPGKAPKLLIYYTSRLQSGVPSRFSGSGSGTDFTLTISSLQPEDFATYFCQQGNTWPPTFGQGTKLEIKRGGSGGGGSGDIQMTQSPSSLSASVGDRVTITCTSSQNIVHSNGNTYLEWYQQKPGKAPKLLIYKVSNRFSGVPSRFSGSGSGTDFTLTISSLQPEDFATYYCFQVSHVPYTFGQGTKVEIKR"
–,0.004 nM,"DVD3224 (bispecific antibody, IgG1) VH: EVQLVQSGAEVKKPGASVKVSCKASGYTFANYGIIWVRQAPGQGLEWMGWINTYTGKPTYAQKFQGRVTMTTDTSTSTAYMELSSLRSEDTAVYYCARKLFTTMDVTDNAMDYWGQGTTVTVSSASTKGPEVQLVESGGGLVQPGGSLRLSCAASGFSFSKYWLGWVRQAPGKGLEWVSDIYPGYDYTHYNEKFKDRFTISADTSKNTAYLQMNSLRAEDTAVYYCARSDGSSTYWGQGTLVTVSS VL: DIQMTQSPSSLSASVGDRVTITCRASQDISQYLNWYQQKPGKAPKLLIYYTSRLQSGVPSRFSGSGSGTDFTLTISSLQPEDFATYFCQQGNTWPPTFGQGTKLEIKRTVAAPDIQMTQSPSSLSASVGDRVTITCTSSQNIVHSNGNTYLEWYQQKPGKAPKLLIYKVSNRFSGVPSRFSGSGSGTDFTLTISSLQPEDFATYYCFQVSHVPYTFGQGTKVEIKR"
0.479 nM,–,"DVD3221 (bispecific antibody, IgG1) VH: EVQLVESGGGLVQPGGSLRLSCAASGFSFSKYWLGWVRQAPGKGLEWVSDIYPGYDYTHYNEKFKDRFTISADTSKNTAYLQMNSLRAEDTAVYYCARSDGSSTYWGQGTLVTVSSASTKGPEVQLVESGGGLVQPGGSLRLSCAASGFTFSNYGVEWVRQAPGKGLEWVSGIWADGSTHYADTVKSRFTISRDNSKNTLYLQMNSLRAEDTAVYYCAREWQHGPVAYWGQGTLVTVSS VL: DIQMTQSPSSLSASVGDRVTITCTSSQNIVHSNGNTYLEWYQQKPGKAPKLLIYKVSNRFSGVPSRFSGSGSGTDFTLTISSLQPEDFATYYCFQVSHVPYTFGQGTKVEIKRTVAAPSVFIFPPDIQMTQSPSSLSASVGDRVTITCKASQLVSSAVAWYQQKPGKAPKLLIYWASTLHTGVPSRFSGSGSGTDFTLTISSLQPEDFATYYCQQHYRTPFTFGQGTKLEIKR"
2.1 nM,–,"DVD3219 (bispecific antibody, IgG1) VH: EVQLVESGGGLVQPGGSLRLSCAASGFSFSKYWLGWVRQAPGKGLEWVSDIYPGYDYTHYNEKFKDRFTISADTSKNTAYLQMNSLRAEDTAVYYCARSDGSSTYWGQGTLVTVSSASTKGPEVQLVESGGGLVQPGGSLRLSCAASGFTFSNYGVEWVRQAPGKGLEWVSGIWADGSTHYADTVKSRFTISRDNSKNTLYLQMNSLRAEDTAVYYCAREWQHGPVAYWGQGTLVTVSS VL: DIQMTQSPSSLSASVGDRVTITCTSSQNIVHSNGNTYLEWYQQKPGKAPKLLIYKVSNRFSGVPSRFSGSGSGTDFTLTISSLQPEDFATYYCFQVSHVPYTFGQGTKVEIKRTVAAPDIQMTQSPSSLSASVGDRVTITCKASQLVSSAVAWYQQKPGKAPKLLIYWASTLHTGVPSRFSGSGSGTDFTLTISSLQPEDFATYYCQQHYRTPFTFGQGTKLEIKR"

# Second part, the binder before the results:
Binder,C-Terminal VD huTNFα Neutralization Assay IC50,N-Terminal VD huTNFα Neutralization Assay IC50
"DVD3212 (bispecific antibody, IgG1) VH: EVQLVESGGGLVQPGGSLRLSCAASGFSFSKYWLGWVRQAPGKGLEWVSDIYPGYDYTHYNEKFKDRFTISADTSKNTAYLQMNSLRAEDTAVYYCARSDGSSTYWGQGTLVTVSSASTKGPSVFPLAPEVQLVESGGGLVQPGGSLRLSCAASGFTFSNYGVTWVRQAPGKGLEWVSMIWADGSTHYASSVKGRFTISRDNSKNTLYLQMNSLRAEDTAVYYCAREWQHGPVAYWGQGTLVTVSS VL: DIQMTQSPSSLSASVGDRVTITCTSSQNIVHSNGNTYLEWYQQKPGKAPKLLIYKVSNRFSGVPSRFSGSGSGTDFTLTISSLQPEDFATYYCFQVSHVPYTFGQGTKVEIKRTVAAPDIQMTQSPSSLSASVGDRVTITCRASQLVSSAVAWYQQKPGKAPKLLIYWASARHTGVPSRFSGSGSGTDFTLTISSLQPEDFATYYCQQHYKTPFTFGQGTKLEIKR",0.039 nM,–
"DVD3214 (bispecific antibody, IgG1) VH: EVQLVESGGGLVQPGGSLRLSCAASGFTFSNYGVEWVRQAPGKGLEWVSGIWADGSTHYADTVKSRFTISRDNSKNTLYLQMNSLRAEDTAVYYCAREWQHGPVAYWGQGTLVTVSSASTKGPEVQLVESGGGLVQPGGSLRLSCAASGFSFSKYWLGWVRQAPGKGLEWVSDIYPGYDYTHYNEKFKDRFTISADTSKNTAYLQMNSLRAEDTAVYYCARSDGSSTYWGQGTLVTVSS VL: DIQMTQSPSSLSASVGDRVTITCKASQLVSSAVAWYQQKPGKAPKLLIYWASTLHTGVPSRFSGSGSGTDFTLTISSLQPEDFATYYCQQHYRTPFTFGQGTKLEIKRTVAAPDIQMTQSPSSLSASVGDRVTITCTSSQNIVHSNGNTYLEWYQQKPGKAPKLLIYKVSNRFSGVPSRFSGSGSGTDFTLTISSLQPEDFATYYCFQVSHVPYTFGQGTKVEIKR",–,0.02 nM
"DVD3217 (bispecific antibody, IgG1) VH: EVQLVESGGGLVQPGGSLRLSCAASGFTFSNYGVEWVRQAPGKGLEWVSGIWADGSTHYADTVKSRFTISRDNSKNTLYLQMNSLRAEDTAVYYCAREWQHGPVAYWGQGTLVTVSSASTKGPSVFPLAPEVQLVESGGGLVQPGGSLRLSCAASGFSFSKYWLGWVRQAPGKGLEWVSDIYPGYDYTHYNEKFKDRFTISADTSKNTAYLQMNSLRAEDTAVYYCARSDGSSTYWGQGTLVTVSS VL: DIQMTQSPSSLSASVGDRVTITCKASQLVSSAVAWYQQKPGKAPKLLIYWASTLHTGVPSRFSGSGSGTDFTLTISSLQPEDFATYYCQQHYRTPFTFGQGTKLEIKRTVAAPDIQMTQSPSSLSASVGDRVTITCTSSQNIVHSNGNTYLEWYQQKPGKAPKLLIYKVSNRFSGVPSRFSGSGSGTDFTLTISSLQPEDFATYYCFQVSHVPYTFGQGTKVEIKR",–,0.008 nM
"DVD3216 (bispecific antibody, IgG1) VH: EVQLVESGGGLVQPGGSLRLSCAASGFTFSNYGVEWVRQAPGKGLEWVSGIWADGSTHYADTVKSRFTISRDNSKNTLYLQMNSLRAEDTAVYYCAREWQHGPVAYWGQGTLVTVSSASTKGPEVQLVESGGGLVQPGGSLRLSCAASGFSFSKYWLGWVRQAPGKGLEWVSDIYPGYDYTHYNEKFKDRFTISADTSKNTAYLQMNSLRAEDTAVYYCARSDGSSTYWGQGTLVTVSS VL: DIQMTQSPSSLSASVGDRVTITCKASQLVSSAVAWYQQKPGKAPKLLIYWASTLHTGVPSRFSGSGSGTDFTLTISSLQPEDFATYYCQQHYRTPFTFGQGTKLEIKRTVAAPSVFIFPPDIQMTQSPSSLSASVGDRVTITCTSSQNIVHSNGNTYLEWYQQKPGKAPKLLIYKVSNRFSGVPSRFSGSGSGTDFTLTISSLQPEDFATYYCFQVSHVPYTFGQGTKVEIKR",–,0.022 nM
"DVD3218 (bispecific antibody, IgG1) VH: EVQLVESGGGLVQPGGSLRLSCAASGFSFSKYWLGWVRQAPGKGLEWVSDIYPGYDYTHYNEKFKDRFTISADTSKNTAYLQMNSLRAEDTAVYYCARSDGSSTYWGQGTLVTVSSGGGGSGGGGSEVQLVESGGGLVQPGGSLRLSCAASGFTFSNYGVEWVRQAPGKGLEWVSGIWADGSTHYADTVKSRFTISRDNSKNTLYLQMNSLRAEDTAVYYCAREWQHGPVAYWGQGTLVTVSS VL: DIQMTQSPSSLSASVGDRVTITCTSSQNIVHSNGNTYLEWYQQKPGKAPKLLIYKVSNRFSGVPSRFSGSGSGTDFTLTISSLQPEDFATYYCFQVSHVPYTFGQGTKVEIKRGGSGGGGSGDIQMTQSPSSLSASVGDRVTITCKASQLVSSAVAWYQQKPGKAPKLLIYWASTLHTGVPSRFSGSGSGTDFTLTISSLQPEDFATYYCQQHYRTPFTFGQGTKLEIKR",0.413 nM,–
"DVD3211 (bispecific antibody, IgG1) VH: EVQLVESGGGLVQPGGSLRLSCAASGFSFSKYWLGWVRQAPGKGLEWVSDIYPGYDYTHYNEKFKDRFTISADTSKNTAYLQMNSLRAEDTAVYYCARSDGSSTYWGQGTLVTVSSASTKGPEVQLVESGGGLVQPGGSLRLSCAASGFTFSNYGVTWVRQAPGKGLEWVSMIWADGSTHYASSVKGRFTISRDNSKNTLYLQMNSLRAEDTAVYYCAREWQHGPVAYWGQGTLVTVSS VL: DIQMTQSPSSLSASVGDRVTITCTSSQNIVHSNGNTYLEWYQQKPGKAPKLLIYKVSNRFSGVPSRFSGSGSGTDFTLTISSLQPEDFATYYCFQVSHVPYTFGQGTKVEIKRTVAAPSVFIFPPDIQMTQSPSSLSASVGDRVTITCRASQLVSSAVAWYQQKPGKAPKLLIYWASARHTGVPSRFSGSGSGTDFTLTISSLQPEDFATYYCQQHYKTPFTFGQGTKLEIKR",0.014 nM,–
"DVD3213 (bispecific antibody, IgG1) VH: EVQLVESGGGLVQPGGSLRLSCAASGFTFSNYGVEWVRQAPGKGLEWVSGIWADGSTHYADTVKSRFTISRDNSKNTLYLQMNSLRAEDTAVYYCAREWQHGPVAYWGQGTLVTVSSGGGGSGGGGSEVQLVESGGGLVQPGGSLRLSCAASGFSFSKYWLGWVRQAPGKGLEWVSDIYPGYDYTHYNEKFKDRFTISADTSKNTAYLQMNSLRAEDTAVYYCARSDGSSTYWGQGTLVTVSS VL: DIQMTQSPSSLSASVGDRVTITCKASQLVSSAVAWYQQKPGKAPKLLIYWASTLHTGVPSRFSGSGSGTDFTLTISSLQPEDFATYYCQQHYRTPFTFGQGTKLEIKRGGSGGGGSGDIQMTQSPSSLSASVGDRVTITCTSSQNIVHSNGNTYLEWYQQKPGKAPKLLIYKVSNRFSGVPSRFSGSGSGTDFTLTISSLQPEDFATYYCFQVSHVPYTFGQGTKVEIKR",–,0.01 nM
